Residue numbers refer to the chain shown, from its start. Blank lines part the entries; values can stand above or below the binder they belong to.
What was measured:
angiopoietin-2 = target: T1, angiopoietin-2 (UniProt O15123 68-496, limits assumed); assay: cell-based or functional assay
T1 sequence (looked up): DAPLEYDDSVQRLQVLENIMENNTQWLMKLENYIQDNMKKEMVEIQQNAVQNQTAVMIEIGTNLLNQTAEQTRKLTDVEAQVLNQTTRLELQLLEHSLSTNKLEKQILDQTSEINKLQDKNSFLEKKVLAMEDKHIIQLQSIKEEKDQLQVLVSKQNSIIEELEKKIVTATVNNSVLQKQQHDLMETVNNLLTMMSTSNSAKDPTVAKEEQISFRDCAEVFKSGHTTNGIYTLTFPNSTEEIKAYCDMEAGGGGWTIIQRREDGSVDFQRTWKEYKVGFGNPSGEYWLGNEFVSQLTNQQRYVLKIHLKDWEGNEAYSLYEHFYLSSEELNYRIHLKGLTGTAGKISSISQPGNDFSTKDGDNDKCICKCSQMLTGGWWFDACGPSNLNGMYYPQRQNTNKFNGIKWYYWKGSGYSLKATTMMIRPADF

VEGF = target: T2, VEGF (UniProt P15692-9 27-147, limits assumed); assay: cell-based or functional assay
T2 sequence (looked up): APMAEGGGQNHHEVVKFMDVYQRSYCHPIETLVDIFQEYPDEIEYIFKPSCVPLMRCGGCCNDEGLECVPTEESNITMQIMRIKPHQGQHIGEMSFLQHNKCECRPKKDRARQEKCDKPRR

B1: Ophthabody variant III (bispecific antibody)
chain 1: not shown
chain 2: EVQLVESGGGLVQPGGSLRLSCAASGYDFTHYGMNWVRQAPGKGLEWVGWINTYTGEPTYAADFKRRFTFSLDTSKSTAYLQMNSLRAEDTAVYYCAKYPYYYGTSHWYFDVWGQGTLVTVSSGGGGSPREPQVYTLPPCRDELTKNQVSLWCLVKGFYPSDIAVEWESNGQPENNYKTTPPVLDSDGSFFLYSKLTVDKSRWQQGNVFSCSVMHEALHNHYTQKSLSLSGGGGSDIQLTQSPSSLSASVGDRVTITCSASQDISNYLNWYQQKPGKAPKVLIYFTSSLHSGVPSRFSGSGSGTDFTLTISSLQPEDFATYYCQQYSTVPWTFGQGTKVEIKAS
EC50, kinase receptor activation assay (angiopoietin-2): 19 nM

B2: Ophthabody variant IV (bispecific antibody)
chain 1: not shown
chain 2: B1 chain 2 with A343G
EC50, kinase receptor activation assay (angiopoietin-2): 13 nM

B3: Ophthabody variant II (bispecific antibody)
chain 1: not shown
chain 2: EVQLVESGGGLVQPGGSLRLSCAASGYDFTHYGMNWVRQAPGKGLEWVGWINTYTGEPTYAADFKRRFTFSLDTSKSTAYLQMNSLRAEDTAVYYCAKYPYYYGTSHWYFDVWGQGTLVTVSSGGGPREPQVYTLPPCRDELTKNQVSLWCLVKGFYPSDIAVEWESNGQPENNYKTTPPVLDSDGSFFLYSKLTVDKSRWQQGNVFSCSVMHEALHNHYTQKSLSLSGGGDIQLTQSPSSLSASVGDRVTITCSASQDISNYLNWYQQKPGKAPKVLIYFTSSLHSGVPSRFSGSGSGTDFTLTISSLQPEDFATYYCQQYSTVPWTFGQGTKVEIKGS
EC50, kinase receptor activation assay (angiopoietin-2): 18 nM

B7: Ophthabody variant I (bispecific antibody)
chain 1: not shown
chain 2: B3 chain 2 with G339A
EC50, kinase receptor activation assay (angiopoietin-2): 21 nM

Further lines, results first:

EC50, kinase receptor activation assay (angiopoietin-2): 14 nM
B4: Ophthabody variant V (bispecific antibody)
chain 1: not shown
chain 2: B3 chain 2 with G124P, G230P

EC50, kinase receptor activation assay (angiopoietin-2): 18 nM
B5: Ophthabody variant VI (bispecific antibody)
chain 1: not shown
chain 2: B3 chain 2 with G125P, G126P, P127S, G229P, G230P

EC50, kinase receptor activation assay (angiopoietin-2): 23 nM
EC50, luciferase assay (reporter gene assay) (VEGF): 2.1 nM
B6: Ophthabody variant VII (bispecific antibody)
chain 1: not shown
chain 2: B3 chain 2 with S85C, H217C
